Reference: patent US20090297524A1 (DOMANTIS, published 2009)

B1: DOM.149 (other)
VL: DIQMTQSPSSLSASVGDRVTITCRASQWIGRQLVWYQQKPGKAPKLLIYGATELQSGVPSRFSGSGSGTDFTLTISSLQPEDFATYYCQQQSKGPLTFGHGTKVEIKR
notes: Vk dAb
B2: DOM.182 (other)
VH: EVQLLESGGGLVQPGGSLRLSCAASGFTFDEYPMYWVRQAPGKGLEWVSSIGPSGPNTYYADSVKGRFTISRDNSKNTLYLQMNSLRAEDTAVYYCAKSPYFDVIPSYFDYWGQGTLVTVSS
notes: VH dAb
B3: DOM.139 (other)
VH: EVQLLESGGGLVQPGGSLRLSCAASGFTFSNYEMGWVRQAPGKGLEWVSVISEVGSLTYYADSVKGRFTISRDNSKNTLYLQMNSLRAEDTAVYYCAKPHDSSIGFDYWGQGTLVTVSS
notes: VH dAb
B4: DOM.141 (other)
VL: DIQMTQSPSSLSASVGDRVTITCRASQWIGDTLTWYQQKLGKAPKLLIYGGSELQSGVPPRFSGSGSGTDFTLTISSLQPEDFATYYCQQCISSPCTFGQGTKVEIKR
notes: Vk dAb
B5: DOM.146 (other)
VL: DIRMTQSPSSLSASVGDRVTITCRASQWIGDSLAWYQQKPGKAPKLLIYGISELQSGVPSRFSGSGSGTDFTLTISSLQPEDSATYYCQLSSSMPHTFGQGTKVEIKR
notes: Vk dAb
B6: DOM.176 (other)
VH: EVQLLESGGGLVQPGGSLRLSCAASGFTFDAYEMGWVRQAPGKGLEWVSIIDWDGNSTYYADSVKGRFTISRDNSKNTLYLQMNSLRAEDTAVYYCAKPGDNVGIFDYWGQGTLVTVSS
notes: VH dAb
B7: DOM.137 (other)
VH: EVQLLESGGGLVQPGGSLRLSCAASGFTFASYPMGWVRQAPGKGLEWVSSIGPIGFTTYYADSVKGRFTISRDNSKNTLYLQMNSLRAEDTAVYYCAEMKSPYKPQFDYWGQGTLVTVSS
notes: VH dAb
B8: DOM.135 (other)
VH: EVQLLESGGGLVQPGGSLRLSCAASGFTFRRYVMGWVRQAPGKGLEWVSWIEADGRTTYYADSVKGRFTISRDNSKNTLYLQMNSLRAEDTAVYYCAKGLTDQHVIEFDYWGQGTLVTVSS
notes: VH dAb
B9: DOM.145 (other)
VL: DIQMTQSPSSLSASVGDRVTITCRASQTIYTSLSWYQQKPGKAPKLLIHYGSVLQSGVPSRFSGSGSGTDFTLTISSLQPEDSATYYCQQVHQAPTTFGQGTKVEIKR
notes: Vk dAb
B10: DOM.136 (other)
VH: EVQLLESGGGLVQPGGSLRLSCAASGFTFDGYRMGWVRQAPGKGLEWVSSIAPDGNYTYYADSVKGRFTISRDNSKNTLYLQMNSLRAEDTAVYYCAKFWGMQFDYWGQGTLVTVSS
notes: VH dAb
B11: DOM.181 (other)
VH: EVQLLESGGGLVQPGGSLRLSCAASGFTFAFYPMMWVRQAPGKGLEWVSWIDATGTRTYYADSVKGRFTISRDNSKNTLYLQMNSLRAEDTAVYYCAEGNYGSSYTMGVFDYWGQGTLVTVSS
notes: VH dAb
B12: DOM.138 (other)
VH: EVQLLESGGGLVQPGGSLRLSCAASGFTFLAYWMVWVRQAPGKGLEWVSSISPSGTHTYYADSVKGRFTISRDNSKNTLYLQMNSLRVEDTAVYYCAKYTEPGLGSFDYWGQGTLVTVSS
notes: VH dAb
B13: DOM.177 (other)
VH: EVQLLESGGGLVQPGGSLRLSCAASGFTFSNYYMVWVRQAPGKGLEWVSAIDEWGFATYYADSVKGRFTISRDNSKNTLYLQMNSLRAEDTAVYYCAKHWEFTSDTSRFDYWGQGTLVTVSS
notes: VH dAb

These binders were tested against T1, Recombinant human CD40L (human, UniProt P29965 108-261, limits assumed) (assay: CD40L/CD40-Fc receptor binding assay;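 also: plate assay with coated human CD40-Fc, bound ligand detected via HRP anti-biotin antibody and TMB, OD at 450 nm, lower signal indicates stronger inhibition by dAb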).
T1 construct: also called CD40 ligand
T1 sequence (looked up): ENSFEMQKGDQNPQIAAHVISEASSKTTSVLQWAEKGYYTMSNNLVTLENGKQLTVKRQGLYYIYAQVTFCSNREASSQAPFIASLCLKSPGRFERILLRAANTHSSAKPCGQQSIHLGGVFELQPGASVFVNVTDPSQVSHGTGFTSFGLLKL
B1: binds.
B2: binds.
B3: binds.
B4: binds.
B5: binds.
B6: binds.
B7: binds.
B8: binds.
B9: binds.
B10: binds.
B11: binds.
B12: binds.
B13: binds.
